Changes are numbered by the printed parent chain.
T1: Human IL-2Rβ/γ (intermediate affinity IL-2 receptor) (human, UniProt P14784 27-551; P31785 23-369)
T1 sequence (looked up) 1: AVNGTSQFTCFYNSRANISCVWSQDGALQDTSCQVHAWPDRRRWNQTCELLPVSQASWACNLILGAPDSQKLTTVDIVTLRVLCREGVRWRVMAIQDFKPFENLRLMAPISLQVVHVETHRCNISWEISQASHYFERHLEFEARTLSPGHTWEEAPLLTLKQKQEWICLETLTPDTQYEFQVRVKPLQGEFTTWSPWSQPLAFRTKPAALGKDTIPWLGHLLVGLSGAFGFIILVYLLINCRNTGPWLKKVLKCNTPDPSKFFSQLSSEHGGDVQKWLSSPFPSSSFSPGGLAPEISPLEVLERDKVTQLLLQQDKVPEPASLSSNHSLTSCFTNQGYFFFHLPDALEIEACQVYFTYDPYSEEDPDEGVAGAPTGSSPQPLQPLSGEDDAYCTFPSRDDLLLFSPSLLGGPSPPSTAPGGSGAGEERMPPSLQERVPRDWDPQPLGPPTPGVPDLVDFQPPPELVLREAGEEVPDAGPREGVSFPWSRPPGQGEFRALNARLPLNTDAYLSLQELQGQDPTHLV
T1 sequence (looked up) 2: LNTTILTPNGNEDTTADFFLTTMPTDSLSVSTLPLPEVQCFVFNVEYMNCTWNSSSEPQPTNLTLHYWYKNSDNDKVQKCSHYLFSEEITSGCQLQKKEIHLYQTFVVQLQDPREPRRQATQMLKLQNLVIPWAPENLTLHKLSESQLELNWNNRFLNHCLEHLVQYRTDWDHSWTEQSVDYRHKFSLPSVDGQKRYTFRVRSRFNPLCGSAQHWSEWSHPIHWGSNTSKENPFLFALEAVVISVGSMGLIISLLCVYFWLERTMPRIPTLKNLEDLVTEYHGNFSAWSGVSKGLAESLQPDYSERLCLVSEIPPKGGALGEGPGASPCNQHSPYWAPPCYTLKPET

T2: Human IL-2Rα/β/γ complex (high affinity IL-2 receptor) (human, UniProt P01589 22-272; P14784 27-551; P31785 23-369)
T2 construct: whole, on cells
T2 sequence (looked up) 1: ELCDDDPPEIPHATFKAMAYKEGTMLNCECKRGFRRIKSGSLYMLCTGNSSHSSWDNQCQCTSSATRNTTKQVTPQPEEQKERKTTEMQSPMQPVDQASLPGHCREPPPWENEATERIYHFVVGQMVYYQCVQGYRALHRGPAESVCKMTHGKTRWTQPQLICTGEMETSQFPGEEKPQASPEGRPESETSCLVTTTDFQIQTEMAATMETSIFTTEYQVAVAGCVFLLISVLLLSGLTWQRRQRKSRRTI
T2 sequence (looked up) 2: T1 sequence (looked up) 1
T2 sequence (looked up) 3: T1 sequence (looked up) 2

B1: W3XX115-T2U0.E44-31.uIgG4V322 (Fc fusion)
chain: APTSSSTKKTQLQLEHLLLDLQMILNGINNYKNPKLTRMLTVKFYMPKKATELKHLQCLEEELKPLEEVLNLAQSKNFHLRPRDLISNINVIVLELKGSETTFMCEYADETATIVEFLNRWITFCQSILESKYGPPCPPCPAPEAAGGPSVFLFPPKPKDTLMISRTPEVTCVVVDVSQEDPEVQFNWYVDGVEVHNAKTKPREEQFNSTYRVVSVLTVLHQDWLNGKEYKCKVSNKGLPSSIEKTISKAKGQPREPQVYTLPPCQEEMTKNQVSLWCLVKGFYPSDIAVEWESNGQPENNYKTTPPVLDSDGSFFLYSRLTVDKSRWQEGNVFSCSVMHEALHNHYTQKSLSLSLG
heavy: EIQLQQSGPELVKPGASVKVSCKASGYSFTDYNMYWVKQSHGESLEWIGYIDPYNGGTRYNQKFKGKATLTVDKSSSTAFMHLNSLTSEDSAVYYCARNGHWDGAWFAYWGQGTLVTVSAASTKGPSVFPLAPCSRSTSESTAALGCLVKDYFPEPVTVSWNSGALTSGVHTFPAVLQSSGLYSLSSVVTVPSSSLGTKTYTCNVDHKPSNTKVDKRVESKYGPPCPPCPAPEAAGGPSVFLFPPKPKDTLMISRTPEVTCVVVDVSQEDPEVQFNWYVDGVEVHNAKTKPREEQFNSTYRVVSVLTVLHQDWLNGKEYKCKVSNKGLPSSIEKTISKAKGQPREPQVCTLPPSQEEMTKNQVSLSCAVKGFYPSDIAVEWESNGQPENNYKTTPPVLDSDGSFFLVSRLTVDKSRWQEGNVFSCSVMHEALHNHYTQKSLSLSLG
light: DIQMNQSPSSLSASLGDTITITCHASQNINVWLSWYQQKPGNIPKLLIYKASNLHTGVPSRFSGSRSGTGFTLTISSLQPEDIATYYCHQGQSYPFTFGSGTKLEIKRTVAAPSVFIFPPSDEQLKSGTASVVCLLNNFYPREAKVQWKVDNALQSGNSQESVTEQDSKDSTYSLSSTLTLSKADYEKHKVYACEVTHQGLSSPVTKSFNRGEC
B2: W3XX115-T2U0.E44-32.uIgG4V322 (Fc fusion)
chain: B1 chain with V42I
heavy: B1 heavy
light: B1 light
B3: W3XX115-T2U0.E44-9.uIgG4V1 (Fc fusion)
chain: APTSSSTKKTQLQLEHLLLDLQMILNGINNYKNPKLTRMLTFKFYMPKKATELKHLQCLEEELKPLEEVLNLAQSKNFHLRPRDLISNINVIVLELKGSETTFMCEYADETATIVEFLNRWITFCQESKYGPPCPPCPAPEFLGGPSVFLFPPKPKDTLMISRTPEVTCVVVDVSQEDPEVQFNWYVDGVEVHNAKTKPREEQFNSTYRVVSVLTVLHQDWLNGKEYKCKVSNKGLPSSIEKTISKAKGQPREPQVYTLPPCQEEMTKNQVSLWCLVKGFYPSDIAVEWESNGQPENNYKTTPPVLDSDGSFFLYSRLTVDKSRWQEGNVFSCSVMHEALHNHYTQKSLSLSLG
heavy: B1 heavy with A234F, A235L
light: B1 light
notes: IL-2 with C-terminal 7 aa (SIISTLT) deleted; E44 format, IgG4
B4: W3XX115-T2U0.E44-5.uIgG4V1 (Fc fusion)
chain: APTSSSTKKTQLQLEHLLLDLQMILNGINNYKNPKLTRMLTFKFYMPKKATELKHLQCLEEELKPLEEVLNLAQSKNFHLRPRDLISNINVIVLELKGSETTFMCEYADETATIVEFLNRWITFCQSIISESKYGPPCPPCPAPEFLGGPSVFLFPPKPKDTLMISRTPEVTCVVVDVSQEDPEVQFNWYVDGVEVHNAKTKPREEQFNSTYRVVSVLTVLHQDWLNGKEYKCKVSNKGLPSSIEKTISKAKGQPREPQVYTLPPCQEEMTKNQVSLWCLVKGFYPSDIAVEWESNGQPENNYKTTPPVLDSDGSFFLYSRLTVDKSRWQEGNVFSCSVMHEALHNHYTQKSLSLSLG
heavy: B1 heavy with A234F, A235L
light: B1 light
notes: IL-2 with C-terminal 3 aa (TLT) deleted; E44 format, IgG4
B5: W3XX115-T2U0.E44-7.uIgG4V1 (Fc fusion)
chain: APTSSSTKKTQLQLEHLLLDLQMILNGINNYKNPKLTRMLTFKFYMPKKATELKHLQCLEEELKPLEEVLNLAQSKNFHLRPRDLISNINVIVLELKGSETTFMCEYADETATIVEFLNRWITFCQSIESKYGPPCPPCPAPEFLGGPSVFLFPPKPKDTLMISRTPEVTCVVVDVSQEDPEVQFNWYVDGVEVHNAKTKPREEQFNSTYRVVSVLTVLHQDWLNGKEYKCKVSNKGLPSSIEKTISKAKGQPREPQVYTLPPCQEEMTKNQVSLWCLVKGFYPSDIAVEWESNGQPENNYKTTPPVLDSDGSFFLYSRLTVDKSRWQEGNVFSCSVMHEALHNHYTQKSLSLSLG
heavy: B1 heavy with A234F, A235L
light: B1 light
notes: IL-2 with C-terminal 5 aa (ISTLT) deleted; E44 format, IgG4

biological target: T1, Human IL-2Rβ/γ (intermediate affinity …); experiment: cell-based or functional assay

B1 and B2 are within 1.5-fold of each other in “Human CD8+ T Potency EC50 (STAT5 phosphorylation)” value: 365 nM for the first, 379 nM for the second.

First: B1
Second: B2
The “Human CD8+ T Potency reduction” value of the first is lower: 100 fold for the first, 104 fold for the second.

biological target: T1, Human IL-2Rβ/γ (intermediate affinity …); experiment: FACS, HH cells; EC50 fold vs T2U0.E44-1
Description: (§1) Human cutaneous T cell lymphoma HH cells, malignant non-Hodgkin's lymphoma NK92 cells and cutaneous T cell lymphoma MJ20 cells were used for binding assay. They both constitutively express IL-2Rβ (CD122) and […] (CD132), and NK92 and MJ20 also expresses IL-2Rα (CD25). HH, NK92 and MJ20 cells were cultured following ATCC guidance, then transferred to a 96-plate for binding analysis. Cells were incubated with IL-2/Fc fusion proteins at the indicated concentrations for 30 min at 4° C. to avoid internalization. Binding was detected by 2nd antibody of PE-anti-human Fc at 4° C. for another 30 min. The median fluorescence intensity (MFI) on HH and NK92 cells was measured using FACS.

Compared with B1, B3 is lower in Affinity reduction: 15.8 fold for the first, 1.76 fold for the second.

Compared with B4, B2 is higher in Affinity reduction: 1.62 fold for the first, 17.9 fold for the second.

biological target: T1, Human IL-2Rβ/γ (intermediate affinity …); experiment: FACS, HH cells
Description: as §1

Compared with B1, B3 is 15-fold lower in EC50: 800 nM for the first, 54.5 nM for the second. The second is the more potent here.

First: B4
Second: B2
The EC50 of the first is 18-fold lower: 50.1 nM for the first, 904 nM for the second.

biological target: T2, Human IL-2Rα/β/γ complex (high affinity …); experiment: FACS, NK92 cells; EC50 fold vs T2U0.E44-1
Description: as §1

Going from B3 to B4, the Affinity reduction rises from 1.55 fold to 2.63 fold.

B5 was tested, and the Affinity reduction was 94 fold.

biological target: T2, Human IL-2Rα/β/γ complex (high affinity …); experiment: FACS, NK92 cells
Description: as §1

Going from B3 to B4, the EC50 rises from 8.52 nM to 14.5 nM (1.7-fold).

Binder B5 has an EC50 of roughly 515 nM.

biological target: T2, Human IL-2Rα/β/γ complex (high affinity …); experiment: cell-based or functional assay

Going from B3 to B4, the “Potency in human Treg EC50” value rises from 1.44 nM to 4.62 nM (3.2-fold).

With B5 the “Potency in human Treg EC50” value was 36.4 nM.

First: B3
Second: B4
The “Potency reduction (Treg)” value of the first is lower: 55.6 fold for the first, 179 fold for the second.

In the case of B5, the “Potency reduction (Treg)” value is reported as 1400 fold.

biological target: T1, Human IL-2Rβ/γ (intermediate affinity …); experiment: cell-based or functional assay; remark: another data set of the same source

Compared with B3, B4 is 5.4-fold lower in “Potency in human CD8+ T EC50” value: 96.5 nM for the first, 18 nM for the second.

With B5 the “Potency in human CD8+ T EC50” value was 5110 nM.

Compared with B3, B4 is lower in “Potency reduction (CD8+ T)” value: 10.1 fold for the first, 1.89 fold for the second.

B5 was tested, and the “Potency reduction (CD8+ T)” value was 535 fold.
